Experimental data published in patent US20240270821A1, “GIP/GLP1/GCG TRI-RECEPTOR AGONISTS AND USES THEREOF” (priority 2023, published 2024).
Residue numbers refer to the chain shown, from its start.

T1: human GIP receptor (human) (UniProt P48546)
T1 sequence (looked up): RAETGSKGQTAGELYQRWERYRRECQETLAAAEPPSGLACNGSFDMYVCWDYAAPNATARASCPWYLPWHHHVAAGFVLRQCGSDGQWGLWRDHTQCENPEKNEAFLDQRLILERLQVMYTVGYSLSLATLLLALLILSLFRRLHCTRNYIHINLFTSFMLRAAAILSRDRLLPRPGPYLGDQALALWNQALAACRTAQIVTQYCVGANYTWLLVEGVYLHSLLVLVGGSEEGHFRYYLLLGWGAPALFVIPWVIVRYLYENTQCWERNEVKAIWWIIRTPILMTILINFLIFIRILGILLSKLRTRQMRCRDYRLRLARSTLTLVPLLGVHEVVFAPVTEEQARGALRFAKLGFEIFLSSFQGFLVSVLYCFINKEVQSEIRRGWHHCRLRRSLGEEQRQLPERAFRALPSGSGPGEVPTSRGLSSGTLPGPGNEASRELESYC

B1: Example 903 (peptide)
chain: YXQGTFTSDXSKXLDKKAQXAFIEYLIEXGPSSGAPPPSGSEEE
modifications: synthetic construct; SITE 2: note = 2-Aminoisobutyric Acid; SITE 10: note = 3-(4-Pyridyl)-L-alanine; SITE 13: note = alpha-methyl-leucine; SITE 17: note = Lysine is chemically modified through conjugation of the epsilon-amino group of the Lysine side chain with (2-[2-(2-Amino-ethoxy)-ethoxy]-acetyl)
B2: Example 906 (peptide)
chain: B1 chain
modifications: synthetic construct; SITE 2: note = 2-Aminoisobutyric Acid; SITE 10: note = 3-(4-Pyridyl)-L-alanine; SITE 13: note = alpha-methyl-leucine; SITE 17: note = Lysine is chemically modified through conjugation of the epsilon-amino group of the Lysine side chain with (gamma-Glu)2-CO-(CH2)16-CO2H; SITE 20:
B3: Example 904 (peptide)
chain: YXQGTFTSDXSKXLDKKAQXAFIEYLIEXGPSSGAPPPSGSE
modifications: synthetic construct; SITE 2: note = 2-Aminoisobutyric Acid; SITE 10: note = 3-(4-Pyridyl)-L-alanine; SITE 13: note = alpha-methyl-leucine; SITE 17: note = Lysine is chemically modified through conjugation of the epsilon-amino group of the Lysine side chain with (gamma-Glu)2-CO-(CH2)16-CO2H; SITE 20:
B4: Example 927 (peptide)
chain: B3 chain with K12Q
modifications: Aib, 4Pal, Me4Pal, alpha-methyl-Leu, lipidated Lys, amide; synthetic construct; SITE 2: note = 2-Aminoisobutyric Acid; SITE 10: note = 3-(4-Pyridyl)-L-alanine; SITE 13: note = alpha-methyl-leucine; SITE 17: note = Lysine is chemically modified through conjugation of the epsilon-amino group of the Lysine side chain with D-Glutamic acid-(gamma-Glu)-D-Glutamic
B5: Example 924 (peptide)
chain: B3 chain with K12Q
modifications: C-terminal amide; lysine acylated with γ-Glu-C18 diacid; synthetic construct; SITE 2: note = 2-Aminoisobutyric Acid; SITE 10: note = 3-(4-Pyridyl)-L-alanine; SITE 13: note = alpha-methyl-leucine; SITE 17: note = Lysine is chemically modified through conjugation of the epsilon-amino group of the Lysine side chain with D-Glutamic acid-(gamma-Glu)-CO-(CH2)16
B6: Example 925 (peptide)
chain: B3 chain with K12Q
modifications: acylated lysine γGlu-C18 diacid; non-natural residues; C-terminal amide; synthetic construct; SITE 2: note = 2-Aminoisobutyric Acid; SITE 10: note = 3-(4-Pyridyl)-L-alanine; SITE 13: note = alpha-methyl-leucine; SITE 17: note = Lysine is chemically modified through conjugation of the epsilon-amino group of the Lysine side chain with (D-Glutamic acid)2-(gamma-Glu)-CO-(CH2)
B7: Example 926 (peptide)
chain: B3 chain with K12Q
modifications: γGlu-C18 diacid on Lys; non-natural residues; amide; synthetic construct; SITE 2: note = 2-Aminoisobutyric Acid; SITE 10: note = 3-(4-Pyridyl)-L-alanine; SITE 13: note = alpha-methyl-leucine; SITE 17: note = Lysine is chemically modified through conjugation of the epsilon-amino group of the Lysine side chain with (gamma-Glu)-(D-Glutamic acid)2-CO-(CH2)
B8: Example 907 (peptide)
chain: YXQGTFTSDXSKXLDKKAQXAFIEYLIEXGPSSGAPPPSGS
modifications: synthetic construct; SITE 2: note = 2-Aminoisobutyric Acid; SITE 10: note = 3-(4-Pyridyl)-L-alanine; SITE 13: note = alpha-methyl-leucine; SITE 17: note = Lysine is chemically modified through conjugation of the epsilon-amino group of the Lysine side chain with (gamma-Glu)2-CO-(CH2)16-CO2H; SITE 20:
B9: Example 921 (peptide)
chain: B8 chain with K12Q
modifications: Aib, 4Pal, αMeL, Me4Pal; acylated Lys; C-terminal amide; synthetic construct; SITE 2: note = 2-Aminoisobutyric Acid; SITE 10: note = 3-(4-Pyridyl)-L-alanine; SITE 13: note = alpha-methyl-leucine; SITE 17: note = Lysine is chemically modified through conjugation of the epsilon-amino group of the Lysine side chain with (D-Glutamic acid)2-(gamma-Glu)-CO-(CH2)
B10: Example 908 (peptide)
chain: B8 chain with X29G
modifications: synthetic construct; SITE 2: note = 2-Aminoisobutyric Acid; SITE 10: note = 3-(4-Pyridyl)-L-alanine; SITE 13: note = alpha-methyl-leucine; SITE 17: note = Lysine is chemically modified through conjugation of the epsilon-amino group of the Lysine side chain with (2-[2-(2-Amino-ethoxy)-ethoxy]-acetyl)
B11: Example 948 (peptide)
chain: B8 chain with K12Q, Y25X, X29G
modifications: Aib, 4Pal, Me4Pal, alpha-methyl-Leu, lipidated Lys, amide; synthetic construct; SITE 2: note = 2-Aminoisobutyric Acid; SITE 10: note = 3-(4-Pyridyl)-L-alanine; SITE 13: note = alpha-methyl-leucine; SITE 17: note = Lysine is chemically modified through conjugation of the epsilon-amino group of the Lysine side chain with (2-[2-(2-Amino-ethoxy)-ethoxy]-acetyl)
B12: Example 910 (peptide)
chain: B8 chain with K12Q, Y25X, I27L, X29G
modifications: synthetic construct; SITE 2: note = 2-Aminoisobutyric Acid; SITE 10: note = 3-(4-Pyridyl)-L-alanine; SITE 13: note = alpha-methyl-leucine; SITE 17: note = Lysine is chemically modified through conjugation of the epsilon-amino group of the Lysine side chain with (2-[2-(2-Amino-ethoxy)-ethoxy]-acetyl)
B13: Example 933 (peptide)
chain: B8 chain with K12X, K16X, Y25X, I27L, X29G
modifications: synthetic construct; SITE 2: note = 2-Aminoisobutyric Acid; SITE 10: note = 3-(4-Pyridyl)-L-alanine; SITE 12: note = L-ornithine; SITE 13: note = alpha-methyl-leucine; SITE 16: note = L-ornithine; SITE 17: note = Lysine is chemically modified through conjugation of the epsilon-amino group of the Lys
B14: Example 950 (peptide)
chain: B8 chain with K12R, Y25X, X29G
modifications: non-natural residues, AEEA-γGlu-C18 diacid lysine acylation, C-terminal amide; synthetic construct; SITE 2: note = 2-Aminoisobutyric Acid; SITE 10: note = 3-(4-Pyridyl)-L-alanine; SITE 13: note = alpha-methyl-leucine; SITE 17: note = Lysine is chemically modified through conjugation of the epsilon-amino group of the Lysine side chain with (2-[2-(2-Amino-ethoxy)-ethoxy]-acetyl)
B15: Example 923 (peptide)
chain: B8 chain with K12Q
modifications: non-natural residues; C18 diacid-e-γGlu-e on Lys; C-terminal amide; synthetic construct; SITE 2: note = 2-Aminoisobutyric Acid; SITE 10: note = 3-(4-Pyridyl)-L-alanine; SITE 13: note = alpha-methyl-leucine; SITE 17: note = Lysine is chemically modified through conjugation of the epsilon-amino group of the Lysine side chain with D-Glutamic acid-(gamma-Glu)-D-Glutamic
B16: Example 914 (peptide)
chain: B8 chain with Y25X
modifications: Aib, 4Pal, αMeL, Me4Pal; acylated Lys; C-terminal amide; synthetic construct; SITE 2: note = 2-Aminoisobutyric Acid; SITE 10: note = 3-(4-Pyridyl)-L-alanine; SITE 13: note = alpha-methyl-leucine; SITE 17: note = Lysine is chemically modified through conjugation of the epsilon-amino group of the Lysine side chain with (2-[2-(2-Amino-ethoxy)-ethoxy]-acetyl)
B17: Example 919 (peptide)
chain: B8 chain with K12Q, G40E, S41E
modifications: non-natural residues; lipidated Lys; D-Glu; synthetic construct; SITE 2: note = 2-Aminoisobutyric Acid; SITE 10: note = 3-(4-Pyridyl)-L-alanine; SITE 13: note = alpha-methyl-leucine; SITE 17: note = Lysine is chemically modified through conjugation of the epsilon-amino group of the Lysine side chain with (2-[2-(2-Amino-ethoxy)-ethoxy]-acetyl)
B18: Example 932 (peptide)
chain: B8 chain with K12Q, K16X, Y25X, I27L, X29G
modifications: non-natural residues; Lys acylated C18 diacid; C-terminal amide; synthetic construct; SITE 2: note = 2-Aminoisobutyric Acid; SITE 10: note = 3-(4-Pyridyl)-L-alanine; SITE 13: note = alpha-methyl-leucine; SITE 16: note = L-ornithine; SITE 17: note = Lysine is chemically modified through conjugation of the epsilon-amino group of the Lysine side chain with (2-[2-(2-

How the values were obtained:
Experiment in all cases: cell-based or functional assay
hGLP-1R = hGLP-1R (Homo sapiens, UniProt P43220)
[1] = biological target: T1, human GIP receptor (human)
[2] = biological target: human glucagon receptor (human) (UniProt P47871)
human glucagon receptor (human), sequence (P47871 26-477): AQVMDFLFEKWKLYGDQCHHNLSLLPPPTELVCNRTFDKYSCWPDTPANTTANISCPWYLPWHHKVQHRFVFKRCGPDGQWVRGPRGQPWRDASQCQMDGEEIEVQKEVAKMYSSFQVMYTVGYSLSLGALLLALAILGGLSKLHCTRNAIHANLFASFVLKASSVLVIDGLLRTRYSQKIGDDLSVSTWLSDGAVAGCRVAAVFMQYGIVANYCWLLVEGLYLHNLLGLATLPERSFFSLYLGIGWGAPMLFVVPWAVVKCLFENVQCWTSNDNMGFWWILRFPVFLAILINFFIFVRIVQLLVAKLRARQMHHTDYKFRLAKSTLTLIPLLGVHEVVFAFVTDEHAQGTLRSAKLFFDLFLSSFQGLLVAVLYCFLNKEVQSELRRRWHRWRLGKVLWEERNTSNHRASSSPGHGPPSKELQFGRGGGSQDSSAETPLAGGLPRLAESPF

hGLP-1R, sequence (P43220 24-463): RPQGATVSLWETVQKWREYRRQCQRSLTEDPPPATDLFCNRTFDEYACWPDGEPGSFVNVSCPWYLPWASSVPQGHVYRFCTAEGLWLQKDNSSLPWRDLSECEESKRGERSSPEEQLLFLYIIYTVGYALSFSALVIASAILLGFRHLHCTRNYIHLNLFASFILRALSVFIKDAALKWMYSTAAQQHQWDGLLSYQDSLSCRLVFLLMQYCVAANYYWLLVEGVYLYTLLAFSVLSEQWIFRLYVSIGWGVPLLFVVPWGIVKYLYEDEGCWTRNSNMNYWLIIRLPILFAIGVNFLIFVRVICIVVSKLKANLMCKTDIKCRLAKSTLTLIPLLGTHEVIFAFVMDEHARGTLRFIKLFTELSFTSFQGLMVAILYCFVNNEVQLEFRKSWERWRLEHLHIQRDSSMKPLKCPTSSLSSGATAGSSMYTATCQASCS

| Binder | Relative cAMP EC50 (hGLP-1R) | cAMP Rel EC50 (1% HSA) (hGLP-1R) | Relative cAMP EC50 [1] | cAMP Rel EC50 (1% HSA) [1] | Relative cAMP EC50 [2] | cAMP Rel EC50 (1% HSA) [2] | cAMP Rel EC50, nM (1% HSA) (hGLP-1R) | cAMP Rel EC50, nM (1% HSA) [1] | cAMP Rel EC50, nM (1% HSA) [2] |
| --- | --- | --- | --- | --- | --- | --- | --- | --- | --- |
| B1 | 2.7 nM | 387 nM | 0.277 nM | 31.2 nM | 12.9 nM | 1630 nM |  |  |  |
| B2 | 2.48 nM | 236 nM | 0.212 nM | 15.4 nM | 14.7 nM | 1170 nM |  |  |  |
| B3 | 1.94 nM | 198 nM | 0.194 nM | 15 nM | 9.88 nM | 1330 nM |  |  |  |
| B4 |  | 584 nM |  | 22.2 nM |  | 1210 nM |  |  |  |
| B5 |  | 402 nM |  | 15.7 nM |  | 910 nM |  |  |  |
| B6 |  | 708 nM |  | 23 nM |  | 2500 nM |  |  |  |
| B7 |  | 600 nM |  | 13.5 nM |  | 1380 nM |  |  |  |
| B8 | 1.15 nM | 123 nM | 0.103 nM | 8.86 nM | 5.79 nM | 1210 nM |  |  |  |
| B9 |  | 261 nM |  | 12.4 nM |  | 2130 nM |  |  |  |
| B10 | 1.2 nM | 174 nM | 0.246 nM | 26.7 nM | 8.11 nM | 980 nM |  |  |  |
| B11 |  | 304 nM |  | 22.9 nM |  | 537 nM |  |  |  |
| B12 | 1.49 nM | 239 nM | 0.111 nM | 25.7 nM | 9.76 nM | 2640 nM |  |  |  |
| B13 | 2.32 nM | 557 nM | 0.259 nM | 35.1 nM | 5.51 nM | 1530 nM |  |  |  |
| B14 |  |  |  |  |  |  | 328 nM | 18.1 nM | 327 nM |
| B15 |  | 870 nM |  | 18.5 nM |  | 1840 nM |  |  |  |
| B16 |  | 91.7 nM |  | 5.94 nM |  | 983 nM |  |  |  |
| B17 |  | 454 nM |  | 25.8 nM |  | 467 nM |  |  |  |
| B18 |  | 249 nM |  | 25 nM |  | 513 nM |  |  |  |
